Km data for three substances are collected here from patent US12173330B2, “Method for producing hydroxy-L-pipecolic acid” (API CORPORATION, priority 2015, dated 2024).

The term Km denotes the substrate concentration at which the rate is half of its maximum.

Data set [1] concerns O=C(O)[C@@H]1CCCCN1. Kind of data set: purified protein, by the assay type.
For data set [2], the system named is O=C(O)[C@@H]1CCCN1. Put plainly: purified protein, by the assay type. The note with it: other: substrate: L-proline, 20 mmol/L 2-oxoglutaric acid, 30° C.
[3] abbreviates: other: substrate: L-pipecolic acid, 20 mmol/L 2-oxoglutaric acid, 30° C.

For the substance “Colletotrichum gloeosporioides Nara qc5 L-pipecolic acid trans-4-hydroxylase CgPH, SEQ ID NO: 12 (Colletotrichum fructicola Nara gc5)”, the Km in data set [1] (setting [3]) worked out at 8560 µM.

With “Gibberella zeae PH-1 L-pipecolic acid trans-4-hydroxylase GzPH, SEQ ID NO: 16 (Fusarium graminearum PH-1)”, the Km in data set [1] (30.0 °C) was found to be 4720 µM.

“Segniliparus rugosus ATCC BAA-974 L-pipecolic acid cis-5-hydroxylase SruPH, SEQ ID NO: 4 (Segniliparus rugosus ATCC BAA-974)”: the Michaelis constant (Km) amounted to 1090 µM in data set [1] (setting [3]) and 400 µM in data set [2].
